# Results as given in patent publication US20080279856A1, “Inhibition of Bradykinin Release” (Novo Nordisk Pharmaceuticals, Inc., priority 1999, published 2008).
# Legend:
# [1] = system: HUVEC or BAEC monolayers; experiment: EC intracellular free Ca2+ (fluo-3/AM, confocal microscopy); type: cell-based, human, bovine; conditions: HBP 75 μg/ml
# Procedure: The Ca^2+ sensitive fluorescent probe fluo-3/AM is used for determination of changes in EC intracellular free Ca^2+. Confluent HUVEC or BAEC monolayers cultured on Biomatrix I coated filters are incubated with a Fluo-3/AM solution (3 μM in HBSS containing 2% FCS and […] HEPES), added to both the apical and basolateral surface, for 30 min at 37° C. The monolayers are washed three times and incubated with fresh HBSS in the dark for 20 min at room temperature before use to allow complete hydrolysis of the dye ester to its calcium sensitive free acid form. EC are stimulated with HBP added to the apical surface. Changes in EC Ca^2+i in response to HBP stimulation are measured through continuous registration of fluorescence intensity with a laser-scanning confocal imaging system (Insight Plus; Meridian Instruments Inc., Okemon, Mich.).
# [2] = system: EC monolayers (HUVEC or BAEC); experiment: Transendothelial electrical resistance (TEER) of EC monolayers after HBP stimulation; type: cell-based, human, bovine
# Procedure: Human umbilical vein endothelial cells (HUVEC) are isolated from fresh umbilical cords as described by Jaffe et al., 1973, J. Clin. Invest. 52:2745-2756), and bovine aorta endothelial cells (BAEC) are isolated according to the method of Booyse et al., 1975, Thromb. Diath. Haemmorrh. 24:825-839) with a few modifications. Briefly, the lumen of the umbilical vein or bovine aorta is incubated with a 0.25% collagenase solution for 10 min, and detached endothelial cells washed out with PBS. Harvested cells are pelleted and resuspended in culture medium, seeded in tissue culture flasks and incubated under standard conditions. Medium is changed every 48 h until cultures have reached confluence (3-5 days). HUVEC or BAEC in the first to fifth passages are used in the experiments. Identification and purity determination of ECs are based on cobblestone morphology and characterization by factor VIII/vWf antigen (Booyse et al., 1975, Thromb. Diath. Haemmorrh. 24:825-839). Staining for factor VIII/vWf factor is homogeneous in the cells.
# Cultured EC are detached by brief (2 min) trypsin-EDTA treatment (0.25% trypsin/0.01% EDTA) and replated onto either 0.2 μm pore size Anopore inorganic membrane or 3.0 μm pore size polycarbonate filters (Tissue Culture inserts, 10 mm; NUNC, Roskilde, Denmark). […] The ECs are grown to confluent monolayers, as assessed by daily microscopic observation and measurement of the electrical resistance across the monolayer.
# For measurement of electrical resistance across the EC monolayer, the filter insert is transferred to a resistance measurement chamber (ENDOHM-12; World Precision Instruments, Sarasota, Fla., USA) modified so as to assure exact positioning of the electrodes in relation to each other and to the filter insert during repeated measurements. […] Direct readings of the electrical resistance are given by an ohmmeter (EVOM; World Precision Instruments, Sarasota, Fla., USA) connected to the electrodes of the resistance chamber. […]
molecule,measurement,setting,value
"HBP: Native human heparin-binding protein, mature form with the amino acid sequence SEQ ID NO:1 (protein, listed as Homo sapiens) IVGGRKARPRQFPFLASIQNQGRHFCGGALIHARFVMTAASCFQSQNPGVSTVVLGAYDLRRRERQSRQTFSISSMSENGYDPQQNLNDLMLLQLDREANLTSSVTILPLPLQNATVEAGTRCQVAGWGSQRSGGRLSRFPRFVNVTVTPEDQCRPNNVCTGVLTRRGGICNGDGGTPLVCEGLAHGVASFSLGPCGRGPDFFTRVALFRDWIDGVLNNPGPGPA",change in EC cytosolic Ca2+ (fluo-3 fluorescence intensity),[1],rapid increase in fluorescence intensity
same,time to peak of Ca2+ fluorescence,[1],≤ 1 min
same,onset of decrease in transendothelial resistance,[2]; HBP 75 μg/ml to upper compartment,within one min
same,"decrease in transendothelial resistance, maximum","[2]; HBP 75 μg/ml to upper compartment, after 15 min",30%±3%
same,dose dependence of EC responses (TEER),"[2]; HBP 25, 50 and 75 μg/ml",clearly dose-dependent
